Reference: patent US20230192896A1 (BIOVERATIV THERAPEUTICS, published 2023)

B1: BIIB-12-899 (antibody, V domains shown)
VH: QVQLVQSGAEVKKPGASVKVSCKASGYTFTSYYMHWVRQAPGQGLEWMGIINPSGGSTSYAQKFQGRVTMTRDTSTSTVYMELSSLRSEDTAVYYCARGPRTSSPLYFDLWGRGTLVTVSS
VL: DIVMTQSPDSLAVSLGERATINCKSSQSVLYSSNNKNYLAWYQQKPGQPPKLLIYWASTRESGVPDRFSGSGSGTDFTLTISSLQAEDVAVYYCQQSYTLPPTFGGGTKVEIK
notes: IgG
B2: BIIB-12-907 (antibody, V domains shown)
VH: QVQLQESGPGLVKPSETLSLTCAVSGYSISSGYYWAWIRQPPGKGLEWIGSIYHSGSTYYNPSLKSRVTISVDTSKNQFSLKLSSVTAADTAVYYCARESGMSGAAYWGQGTLVTVSS
VL: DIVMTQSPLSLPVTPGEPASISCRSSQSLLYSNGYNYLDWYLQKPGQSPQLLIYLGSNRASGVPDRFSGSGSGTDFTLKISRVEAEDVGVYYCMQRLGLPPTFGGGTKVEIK
notes: IgG
B3: BIIB-12-891 (antibody, V domains shown)
VH: QVQLVQSGAEVKKPGASVKVSCKASGYTFTSYYIHWVRQAPGQGLEWMGIINPSGGSTSYAQKFQGRVTMTRDTSTSTVYMELSSLRSEDTAVYYCARASIYRGLGAFDIWGQGTMVTVSS
VL: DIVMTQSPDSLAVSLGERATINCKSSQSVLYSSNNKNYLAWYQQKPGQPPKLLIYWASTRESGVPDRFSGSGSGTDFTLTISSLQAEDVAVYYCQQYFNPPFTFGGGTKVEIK
notes: IgG
B4: BIIB-12-892 (antibody, V domains shown)
VH: QVQLVQSGAEVKKPGASVKVSCKASGYTFTSYYMHWVRQAPGQGLEWMGIINPSGGSTSYAQKFQGRVTMTRDTSTSTVYMELSSLRSEDTAVYYCARGLGRRTPTAFDIWGQGTMVTVSS
VL: EIVLTQSPATLSLSPGERATLSCRASQSVSSYLAWYQQKPGQAPRLLIYDASNRATGIPARFSGSGSGTDFTLTISSLEPEDFAVYYCQQRLNLPLTFGGGTKVEIK
notes: IgG
B5: BIIB-12-900 (antibody, V domains shown)
VH: QVQLVQSGAEVKKPGASVKVSCKASGYTFTSYYMHWVRQAPGQGLEWMGIINPGGGSTSYAQKFQGRVTMTRDTSTSTVYMELSSLRSEDTAVYYCARSGGMYDRELGMDVWGQGTTVTVSS
VL: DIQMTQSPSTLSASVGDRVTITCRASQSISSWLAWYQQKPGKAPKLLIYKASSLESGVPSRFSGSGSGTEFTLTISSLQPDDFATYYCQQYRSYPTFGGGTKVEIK
notes: IgG
B6: BIIB-12-901 (antibody, V domains shown)
VH: QVQLVQSGAEVKKPGASVKVSCKASGYTFTSYYMSWVRQAPGQGLEWMGIINPSGGSTSYAQKFQGRVTMTRDTSTSTVYMELSSLRSEDTAVYYCARSRPRRPSPYGMDVWGQGTTVTVSS
VL: EIVLTQSPATLSLSPGERATLSCRASQSVSSYLAWYQQKPGQAPRLLIYDASNRATGIPARFSGSGSGTDFTLTISSLEPEDFAVYYCQQSANFPFTFGGGTKVEIK
notes: IgG
B7: BIIB-12-895 (antibody, V domains shown)
VH: QVQLVQSGAEVKKPGASVKVSCKASGYTFTSYYMHWVRQAPGQGLEWMGIINPSGGSTSYAQKFQGRVTMTRDTSTSTVYMELSSLRSEDTAVYYCARGGGYKSRGIDYWGQGTLVTVSS
VL: DIQMTQSPSSVSASVGDRVTITCRASQGISSWLAWYQQKPGKAPKLLIYAASSLQSGVPSRFSGSGSGTDFTLTISSLQPEDFATYYCQQASSFPFTFGGGTKVEI
notes: IgG
B8: BIIB-12-903 (antibody, V domains shown)
VH: QVQLVQSGAEVKKPGASVKVSCKASGYTFTSYYMHWVRQAPGQGLEWMGIINPSGGSTSYAQKFQGRVTMTRDTSTSTVYMELSSLRSEDTAVYYCARDLGYTAGAFGYWGQGTLVTVSS
VL: EIVLTQSPATLSLSPGERATLSCRASQSVSSYLAWYQQKPGQAPRLLIYDASNRATGIPARFSGSGSGTDFTLTISSLEPEDFAVYYCQQRANWPPTFGGGTKVEIK
notes: IgG
B9: BIIB-12-897 (antibody, V domains shown)
VH: QLQLQESGPGLVKPSETLSLTCTVSGGSISSSSYYWGWIRQPPGKGLEWIGSIYYSGSTYYNPSLKSRVTISVDTSKNQFSLKLSSVTAADTAVYYCAREGRTYYGGWFDPWGQGTLVTVSS
VL: EIVLTQSPGTLSLSPGERATLSCRASQSVSSSYLAWYQQKPGQAPRLLIYGASSRATGIPDRFSGSGSGTDFTLTISRLEPEDFAVYYCQQDGNYPYTFGGGTKVEIK
notes: IgG
B10: BIIB-12-905 (antibody, V domains shown)
VH: QVQLVESGGGVVQPGRSLRLSCAASGFTFSSYGMHWVRQAPGKGLEWVAVISYDGSNKYYADSVKGRFTISRDNSKNTLYLQMNSLRAEDTAVYYCAKGGTYLDTWGQGTLVTVSS
VL: EIVLTQSPGTLSLSPGERATLSCRASQSVRSSYLAWYQQKPGQAPRLLIYGASSRATGIPDRFSGSGSGTDFTLTISRLEPEDFAVYYCQQYGRFPPTFGGGTKVEIK
notes: IgG
B11: BIIB-12-928 (antibody, V domains shown)
VH: QVQLVEFGVGVVQPGRSLRLSCAASGFTFSSYGMHWVRQAPGKGLEWVAVISYDGSNKYYADSVKGRFTISRDNSKNTLYLQMNSLRAEDTAVYYCAKGGTYLDTWGQGTLVTVSS
VL: EIVLTQSPGTLSLSPGERATLSCRASQSVRSSYLAWYQQKPGQAPRLLIYGASSRATGIPDRFSGSGSGTDFTLTISRLEPEDFAVYYCQQYVRFPLTFGGGTKVEIK
notes: IgG
B12: BIIB-12-904 (antibody, V domains shown)
VH: QVQLVESGGGVVQPGRSLRLSCAASGFTFSSYGMHWVRQAPGKGLEWVAVISYDGSNKYYADSVKGRFTISRDNSKNTLYLQMNSLRAEDTAVYYCARGSGRSGYHYWGQGTLVTVSS
VL: EIVMTQSPATLSVSPGERATLSCRASQSVSSNLAWYQQKPGQAPRLLIYGASTRATGIPARFSGSGSGTEFTLTISSLQSEDFAVYYCQQAFNWPPTFGGGTKVEIK
notes: IgG
B13: BIIB-12-912 (antibody, V domains shown)
VH: QVQLVESGGGVVQPGRSLRLSCAASGFTFSSYGMHWVRQAPGKGLEWVAVISYDGSNKYYADSVKGRFTISRDNSKNTLYLQMNSLRAEDTAVYYCAKSGGRYGYDIWGQGTMVTVSS
VL: EIVMTQSPATLSVSPGERATLSCRASQSVSSNLAWYQQKPGQAPRLLIYGASTRATGIPARFSGSGSGTEFTLTISSLQSEDFAVYYCQQFHNFPPTFGGGTKVEIK
notes: IgG
B14: BIIB-12-1299 (antibody, V domains shown)
VH: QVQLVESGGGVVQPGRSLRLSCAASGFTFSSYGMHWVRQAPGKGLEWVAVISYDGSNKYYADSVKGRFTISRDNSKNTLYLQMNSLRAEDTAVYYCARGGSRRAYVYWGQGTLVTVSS
VL: EIVMTQSPATLSVSPGERATLSCRASQSVSSNLAWYQQKPGQAPRLLIYGASTRATGIPARFSGSGSGTEFTLTISSLQSEDFAVYYCQQLNNFPITFGGGTKVEIK
notes: IgG
B15: BIIB-12-902 (antibody, V domains shown)
VH: QVQLVQSGAEVKKPGASVKVSCKASGYTFTSYYMHWVRQAPGQGLEWMGIINPGGGSTSYAQKFQGRVTMTRDTSTSTVYMELSSLRSEDTAVYYCARGGPRRAYSWYFDYWGQGTLVTVSS
VL: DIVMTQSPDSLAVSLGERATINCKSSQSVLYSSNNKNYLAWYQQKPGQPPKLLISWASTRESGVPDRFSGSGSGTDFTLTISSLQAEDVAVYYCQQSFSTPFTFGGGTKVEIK
notes: IgG
B16: BIIB-12-906 (antibody, V domains shown)
VH: QVQLVESGGGVVQPGRSLRLSCAASGFTFSSYGMHWVRQAPGKGLEWVAVISYDGSNKYYADSVKGRFTISRDNSKNTLYLQMNSLRAEDTAVYYCAKSSRHFDYWGRGTLVTVSS
VL: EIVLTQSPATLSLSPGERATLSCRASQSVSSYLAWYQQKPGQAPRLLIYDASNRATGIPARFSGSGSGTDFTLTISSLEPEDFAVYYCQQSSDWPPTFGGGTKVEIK
notes: IgG
B17: BIIB-12-1311 (antibody, V domains shown)
VH: QVQLVESGGGVVQPGRSLRLSCAASGFTFSSYGMHWVRQAPGKGLEWVAVISYDGSNKYYADSVKGRFTISRDNSKNTLYLQMNSLRAEDTAVYYCAKGRHYWAVWGQGTLVTVSS
VL: EIVLTQSPATLSLSPGERATLSCRASQSVSSYLAWYQQKPGQAPRLLIYDASNRATGIPARFSGSGSGTDFTLTISSLEPEDFAVYYCQQASNLPPTFGGGTKVEIK
notes: IgG
B18: BIIB-12-893 (antibody, V domains shown)
VH: QVQLVQSGAEVKKPGASVKVSCKASGYTFTSYYMVWVRQAPGQGLEWMGIINPSGGSTSYAQKFQGRVTMTRDTSTSTVYMELSSLRSEDTAVYYCARDPGRRQYSFYGMDVWGQGTTVTVSS
VL: DIQLTQSPSSVSASVGDRVTITCRASQGISSWLAWYQQKPGKAPKLLIYAASSLQSGVPSRFSGSGSGTDFTLTISSLQPEDFATYYCQQAAAFPFTFGGGTKVEIK
notes: IgG
B19: BIIB-12-896 (antibody, V domains shown)
VH: QVQLVQSGAEVKKPGASVKVSCKASGYTFTSYYMHWVRQAPGQGLEWMGIINPSGGSTSYAQKFQGRVTMTRDTSTSTVYMELSSLRSEDTAVYYCARGLGQQRRGFDIWGQGTLVTVSS
VL: DIQMTQSPSSVSASVGDRVTITCRASQGISSWLAWYQQKPGKAPKLLIYAASSLQSGVPSRFSGSGSGTDFTLTISSLQPEDFATYYCQQANSFPFTFGGGTKVEIK
notes: IgG
B20: BIIB-12-1314 (antibody, V domains shown)
VH: QVQLVESGGGVVQPGRSLRLSCAASGFTFSSYGMHWVRQAPGKGLEWVAVISYDGSNKYYADSVKGRFTISRDNSKNTLYLQMNSLRAEDTAVYYCAKGTRWAGNWGQGTLVTVSS
VL: DIQMTQSPSSVSASVGDRVTITCRASQGISSWLAWYQQKPGKAPKLLIYAASSLQSGVPSRFSGSGSGTDFTLTISSLQPEDFATYYCQQANFFPITFGGGTKVEIK
notes: IgG
B21: BIIB-12-898 (antibody, V domains shown)
VH: QVQLVQSGAEVKKPGASVKVSCKASGYTFTSYYMHWVRQAPGQGLEWMGIINPSGGSTTYAQKFQGRVTMTRDTSTSTVYMELSSLRSEDTAVYYCARGDRMLRAFDPWGQGTLVTVSS
VL: DIQLTQSPSTLSASVGDRVTITCRASQAISSWLAWYQQKPGKAPKLLIYDASSLESGVPSRFSGSGSGTEFTLTISSLQPDDFATYYCQQVNRFPFTFGGGTKVEIK
notes: IgG
B22: BIIB-12-1290 (antibody, V domains shown)
VH: QVQLVQSGAEVKKPGASVKVSCKASGYTFTSYYMHWVRQAPGQGLEWMGIINPGGGSTSYAQKFQGRVTMTRDTSTSTVYMELSSLRSEDTAVYYCAREGGRYVRGMDVWGQGTTVTVSS
VL: DIQMTQSPSSVSASVGDRVTITCRASQGISSWLAWYQQKPGKAPKLLIYAASSLQSGVPSRFSGSGSGTDFTLTISSLQPEDFATYYCQQGFSFPFTFGGGTKVEIK
notes: IgG
B23: BIIB-12-1294 (antibody, V domains shown)
VH: QVQLVQSGAEVKKPGASVKVSCKASGYTFTSYYMHWVRQAPGQGLEWMGIINPSGGSTSYAQKFQGRVTMTRDTSTSTVYMELSSLRSEDTAVYYCARGTRSSRDMDVWGQGTTVTVSS
VL: DIQMTQSPSTLSASVGDRVTITCRASQSISSWLAWYQQKPGKAPKLLIYKASSLESGVPSRFSGSGSGTEFTLTISSLQPDDFATYYCQQVNTFPFTFGGGTKVEIK
notes: IgG
B24: BIIB-12-1293 (antibody, V domains shown)
VH: QVQLVQSGAEVKKPGASVKVSCKASGYTFTSYYMHWVRQAPGQGLEWMGIINPSGGSTSYAQKFQGRVTMTRDTSTSTVYMELSSLRSEDTAVYYCARGSGGKHRGLDVWGQGTMVTVSS
VL: DIQMTQSPSSVSASVGDRVTITCRASQGISSWLAWYQQKPGKAPKLLIYAASSLQSGVPSRFSGSGSGTDFTLTISSLQPEDFATYYCQQANIFPFTFGGGTKVEIK
notes: IgG

Target: T1, non-activatable Factor X (FXn) (Homo sapiens (Human), UniProt P00742 41-488, single biotin on the C-terminal BioTag)
T1 construct: also called BIIB-FX-015
Assay: BLI; class meaning: paragraph 285

Binding result, binds:
B1, B2, B3, B4, B5, B6, B7, B8, B9, B10, B11, B12, B13, B14, B15, B16, B17, B18, B19, B20, B21, B22, B23, B24
